Reference: article PMC5913134, “The IL-33-PIN1-IRAK-M axis is critical for type 2 immunity in IL-33-induced allergic airway inflammation” (Nature Communications, 2018)
Positions count from the first letter of the chain named. Names and notes keep the numbering of the source.

How the values were obtained:
IRAK-M [1] = assay: IRAK-M protein stability, cycloheximide chase; type: cell-based; settings: mutant IRAK-M, WT MEFs; reproduced in DC2.4 cells
Experimental: Fig. 4 PIN1 increases IRAK-M protein stabilization. a After IRAK-M and GFP were coexpressed in WT and PIN1 KO MEFs for 24 h, cells were split equally into 5 dishes. 24 h later cells were treated with cyclohexamide and harvested to monitor IRAK-M, GFP and PIN1 levels at the time points indicated. b Quantification of 3 independent experiments as in a. c WT MEFs stably expressing the TET on inducible short hairpin for PIN1 (shPin1) or pLKO as a control, were expressed with IRAK-M, followed by induction with Doxycycline for 18 h prior to the cyclohexamide chase. d Quantification of 3 independent experiments as in c. e BMDCs from WT or PIN1 KO mice were treated with IL-33 and the levels of IRAK-M were monitored at different time points after induction. f Quantification of 3 independent experiments as in e. g PIN1 KO MEFs were expressed with IRAK-M alone or in combination with PIN1 or its mutants W34A or K63A for 24 h, followed by the cyclohexamide chase to assay IRAK-M stability. h Quantification of 3 independent experiments as in g. i IRAK-M or its different mutants; S110A, S110E and P111A were expressed in WT MEFs, followed by the cyclohexamide chase to assay IRAK-M stability. j Quantification of 3 independent experiments as in i. k IRAK-M or its different mutants were stably expressed in DC2.4 cells, followed by the cyclohexamide chase to monitor IRAK-M stability. l Quantification of 3 independent experiments as in k. The data were analyzed by a Student’s two-tailed t test and the values are reported as mean ± standard errors of the means (SEM). *- statistical significance (P < 0.05), **- significance (P < 0.01)

IRAK-M [2] = assay: IRAK-M nuclear localization in DC2.4 cells; type: cell-based, C57BL/6; settings: stably expressed in DC2.4 cells
Experimental: Suppl em enta ry Figur e 3. a DAPI IR AK-M Pin1 Mergeb […]
Supplementary Figure 3. Pin1 targets IRAK-M and promotes its nuclear translocation upon IL-33 induction.
(a) Immunostaining for IRAK-M and Pin1 in DC2.4 cells before and after IL-33 treatment. ( b) DC2.4 cells were treated with IL-33 and subjected to nuclear/cytoplasmic fractionation, followed by Western blot for IRAK-M with actin as a cytoplasmic marker and Fox1 as a nuclear marker. C- cytoplasmic; N- Nuclear.
(c) Cytospin slides from BALF of the treated WT mice as indicated, were co stained for DC205 and IRAK-M.
(d) IRAK-M or its mutants S110E or P111A were stably expressed in DC2.4 cells and their localization and Pin1 localization were monitored by immunostaining. (e) GFP-IRAK-M were expressed in Pin1 KO MEFs either with or without RFP-Pin1 as indicated, and their localization was monitored. Scale = 50 µm.
(also on this page, place not known: Control +IL-33: b DAPIe MergeGFP RFP GFP- GFP-IRAK-M/ RFP MergeIRAK-M Pin1DAPI ControlIL-33 Mergec Supplementary Figure IRAK-M IRAK-M (b) IL-33 IRAK-M IRAK-M Pin1) […]

PIN1-IRAK-M interaction = assay: Co-immunoprecipitation of PIN1 and IRAK-M; type: binding; settings: stably expressing DC2.4 cells, with/without IL-33
Experimental: (§1) Fig. 2 IL-33 induces IRAK-M phosphorylation and binding to PIN1. a GST PIN1 pulldown assay with DC2.4 cell extracts either non-treated or treated with IL-33 (100 ng/ml) or LPS (100ng/ml) for 1 h. […] The cells were washed with fresh medium and treated with 100 ng/ml IL-33 for the indicated times prior to IRAK-M immunoprecipitation. d DC2.4 cells stably expressing IRAK-M were treated with IL-33 and at the indicated time points were subjected to CO-IP using anti-PIN1 antibody and blotted for IRAK-M. e HEK293 cells were transfected with different IRAK-M constructs expressing the N’ terminal domain (aa1-220), the middle portion of the protein (aa220-440) or the C’ terminal domain (aa 440-630), and then treated with IL-33, followed by CO-IP for PIN1. f DC2.4 cells stably expressing IRAK-M were treated with IL-33 and subjected to GST or GST-PIN1 pull-down.
Cells from one 10-cm dish were homogenized in lysis buffer containing 150 mM NaCl, 1% NP-40, 0.5% deoxycholate, 0.1% SDS, 50 mM Tris-HCl (pH 7.7), 1 mM phenylmethylsulfonyl fluoride (PMSF), 1 mM dithiothreitol, and protease inhibitors. Clarified supernatants were incubated with pre incubated immobilized beads rProtein A agarose beads (RepliGen) premixed with PIN1, GFP or IRAK-M antibody or, as a control, IgG overnight at 4 °C. The beads were washed extensively with lysis buffer before elution in SDS sample buffer.

IRAK-M [3] = assay: IRAK-M phosphorylation in DC2.4 cells; type: cell-based, C57BL/6; settings: DC2.4 stably expressing mutant, IL-33
Experimental: as §1

[4] = type: physicochemical
Excerpt: The IRAK-M[1–119] gene was encoded into the pMAL-c2X vector with N-terminal fusion partner MBP, separated by a Factor XA cleavage site. The R56D and Y61D mutations were achieved using this vector, a single primer (forward primer, with mutations underlined: 5’ […] 3’) and the BIO RAD-iProof High-Fidelity DNA Polymerase to generate expression plasmid pMAL-c2X encoding the MBP- IRAK-M[1-119:R56D,Y61D] fusion protein, with a Factor XA cut site between MBP and IRAK-M[1-119:R56D,Y61D]. To produce uniformly ^15N-labeled MBP-IRAK-M[1-119:R56D,Y61D] in E. coli, transformed cells were grown in M9 minimal media with ^15NH4Cl as the sole nitrogen source, and were induced at OD600 by adding 0.4 mM final concentration of IPTG at 25 °C for 20~22 h. Cells were harvested by centrifugation at 3500 g, the cell pellet was dissolved in IRAK-M wash buffer (20 mM Tris, 200 mM NaCl, 1 mM EDTA, and 0.2 mM TCEP, pH 7.4), and sonicated on ice. Cell debris was removed by centrifugation, the supernatant was incubated with 5 mL of Amylose Resin (BioLabs) pre-equilibrated with IRAK-M wash buffer. The column was washed with 4 bed volumes of IRAK-M wash buffer, and the fusion protein was eluted with 2 bed volumes of elution buffer (10 mM of Maltose added to IRAK-M wash buffer). […] IRAK-M[1-119:R56D,Y61D] concentration was measured by UV absorption at 280 nm (extinction coefficient = 25105 cm^-1 M^-1). […]

WT and PIN1 KO mice = assay: OVA-induced allergic asthma in mice; type: in vivo, mouse; settings: OVA-challenged PIN1 KO vs WT mice
Experimental: Fig. 1 PIN1 is required for IL-33 to induces TH2 polarization and allergic inflammation. a 5 and15 min after IL-33 treatment of DC2.4 cells, cells were extracted and PIN1 activity was measured as previously described. Inset: PIN1 was immune precipitated and immune blotted for PIN1 or Ser71 phosphorylation as indicated. b WT and PIN1 KO MEF’s were treated with different concentrations of IL-33 for 24 h and the medium was measured for IL-6 secretion. c WT and PIN1 KO mice were treated with 200 ng/mice/day for 4 consecutive days and the BALF was examined for IL-4, 5, 6 and 13 by ELISA. d H&E staining representative of lungs from WT and PIN1 KO mice treated with IL-33 (n = 4). Scale bar = 50 µm. e Total cell number in the BALF of WT and PIN1 KO mice was measured using HEMAVET multispecies hematology analyzer. f Eosinophil cell number in the BALF of WT and PIN1 KO mice was measured using HEMAVET multispecies hematology analyzer. g Representative H&E staining of lung sections from WT and PIN1 KO mice after OVA-induced allergic asthma (n = 4). Scale bar = 50 µm. h IL-4, -5, -13 and IL-33 levels in the BALF of WT and PIN1 KO mice after OVA-induced allergic asthma. The groups were compared using Mann-Whitney U test (i) Total cell number in the BALF of WT and PIN1 KO mice before and after OVA-induced allergic asthma. The data were analyzed by a Student’s two-tailed t test unless stated otherwise, and the values are reported as mean ± standard errors of the means (SEM). *- statistical significance (P < 0.05), **- significance (P < 0.01)

B1: S110E: IRAK-M full protein phosphomimetic mutant S110E (protein)
chain: MAGNCGARGALSAHTLLFDLPPALLGELCAVLDSCDGALGWRGLAERLSSSWLDVRHIEKYVDQGKSGTRELLWSWAQKNKTIGDLLQVLQEMGHRRAIHLITNYGAVLEPSEKSYQEGGFPNILFKETANVTVDNVLIPEHNEKGILLKSSISFQNIIEGTRNFHKDFLIGEGEIFEVYRVEIQNLTYAVKLFKQEKKMQCKKHWKRFLSELEVLLLFHHPNILELAAYFTETEKFCLIYPYMRNGTLFDRLQCVGDTAPLPWHIRIGILIGISKAIHYLHNVQPCSVICGSISSANILLDDQFQPKLTDFAMAHFRSHLEHQSCTINMTSSSSKHLWYMPEEYIRQGKLSIKTDVYSFGIVIMEVLTGCRVVLDDPKHIQLRDLLRELMEKRGLDSCLSFLDKKVPPCPRNFSAKLFCLAGRCAATRAKLRPSMDEVLNTLESTQASLYFAEDPPTSLKSFRCPSPLFLENVPSIPVEDDESQNNNLLPSDEGLRIDRMTQKTPFECSQSEVMFLSLDKKPESKRNEEACNMPSSSCEESWFPKYIVPSQDLRPYKVNIDPSSEAPGHSCRSRPVESSCSSKFSWDEYEQYKKE
resistance of IRAK-M to degradation (IRAK-M [1]): completely resistant to degradation
nuclear localization of mutant IRAK-M (IRAK-M [2]): higher nuclear localization
PIN1 interaction (CO-IP), IRAK-M mutants (PIN1-IRAK-M interaction): much weaker PIN1 interaction was evident before IL-33 stimulation

B2: P111A: IRAK-M mutant that eliminates the PIN1 consensus motif (protein)
chain: B1 chain with E110S, P111A
decrease of IRAK-M protein stability (IRAK-M [1]): ~ 50%
IRAK-M phosphorylation (mutant) (IRAK-M [3]): totally abolished
PIN1 interaction (CO-IP), IRAK-M mutants (PIN1-IRAK-M interaction): totally abolished

B3: IRAK-M[1–119]: recombinant IRAK-M residues 1–119 including the DD (protein, UniProt Q8K4B2 1-119, looked up, fragment)
chain: MAGRCGARGALSPQLLLFDLPPALLGELCGILDSCDGPLGWRGLAERLSNSWLDVRHIEKYVNQGKSGTRELLWSWAQKNKTIGDLLEVLQDMGHQRAIHLIINYGVSWTPSVQTHHEL
solubility of cleaved protein [4]: precipitated under all conditions explored

B4: OVA: ovalbumin (OVA), inducer of model of allergic asthma (protein, UniProt P01012 2-386, looked up)
Ovalbumin: GSIGAASMEFCFDVFKELKVHHANENIFYCPIAIMSALAMVYLGAKDSTRTQINKVVRFDKLPGFGDSIEAQCGTSVNVHSSLRDILNQITKPNDVYSFSLASRLYAEERYPILPEYLQCVKELYRGGLEPINFQTAADQARELINSWVESQTNGIIRNVLQPSSVDSQTAMVLVNAIVFKGLWEKAFKDEDTQAMPFRVTEQESKPVQMMYQIGLFRVASMASEKMKILELPFASGTMSMLVLLPDEVSGLEQLESIINFEKLTEWTSSNVMEERKIKVYLPRMKMEEKYNLTSVLMAMGITDVFSSSANLSGISSAESLKISQAVHAAHAEINEAGREVVGSAEAGVDAASVSEEFRADHPFLFCIKHIATNAVLFFGRCVSP
BALF total cells count (WT and PIN1 KO mice): reduced BALF total cells count
TH2 cytokine levels in BALF (WT and PIN1 KO mice): reduced TH2 cytokine levels
lung inflammation (WT and PIN1 KO mice): reduced lung inflammation
